Measurements published in patent publication US20200330603A1, “PEPTIDES FOR RENAL THERAPY” (FRED HUTCHINSON CANCER RESEARCH CENTER, priority 2015, published 2020).
Several values for one entry are separate records, joined by “and”; a condition that tells them apart may be missing. Equal values may be shown once. Ends that are not written are not given here.

Experiments:
[1] = Peptide stability to a reducing agent (DTT), RP-HPLC; format: physicochemical; conditions: 10 mM DTT in PBS, room temperature, 30 minutes
Protocol: (§1) This example describes peptide stability in the presence of pepsin, trypsin, a reducing agent, or elevated temperature. Peptides were first suspended in 500 µl of ddH2O to a stock concentration of 2 mg/ml. […] These reactions were then quenched with 5 μg of soybean trypsin inhibitor (I) and, in some cases, 10 mM dithiothreitol (DTT). […] Temperature stability was tested by incubating peptides in non-reducing conditions at 70° C. for 1 hour. Stability was evaluated by RP-HPLC.

[2] = Blood urea nitrogen (BUN) assay in plasma, renal biocompatibility (Example 4); format: in vivo, mice; conditions: 100 nmol per mouse intravenously, after 24 hours, one value per mouse
Protocol: This example describes renal biocompatibility of peptides of this disclosure. The peptides of SEQ ID NO: 18, SEQ ID NO: 20, SEQ ID NO: 21, SEQ ID NO: 26, SEQ ID NO: 36, SEQ ID NO: 39, SEQ ID NO: 45 and SEQ ID NO: 53 were intravenously dosed into mice at 100 nmol per mouse. After 24 hours, mice were anesthesized with Ketamine-Xylazine and euthanized. Plasma and kidneys were removed as quickly as possible after euthanization. A blood urea nitrogen (BUN) assay was performed to assess renal toxicity with a commercially available kit.
The average BUN concentration in plasma for naïve mice was 25 mg/dL, with a standard error of 2 mg/dL. The average BUN concentration in plasma for peptide-dosed mice was 21, with a standard error of 1 mg/dL.

trypsin = assay: Peptide stability in the presence of trypsin, RP-HPLC; format: in vitro ADME; conditions: 5 μg trypsin, pH 7.0, 30 minutes at 37.5° C.
Protocol: as §1

[3] = Plasma creatinine, Jaffe reaction method (Example 14); format: in vivo, mice; conditions: 100 nmol iv
Protocol: (§2) This example illustrates assessment of renal injury by peptides of this disclosure. Mice were injected intravenously at a dose of 100 nmol, which is approximately 16 mg/kg. PBS was administered as a negative control. At 24 hours post-peptide administration, mice were euthanized and plasma blood urea nitrogen (BUN) and plasma creatinine were measured. The blood urea nitrogen (BUN) assay was performed to assess renal toxicity with a commercially available kit. Plasma creatinine concentrations were determined using the colorimetrically corrected Jaffe reaction method. Additionally, the kidneys from these mice were removed, sectioned, and stained using periodic acid Schiff (PAS). […] Histological analysis corroborated the mRNA/protein data.

[4] = Kidney histology, periodic acid Schiff (PAS) stain; format: in vivo, mice; conditions: 24 hours after intravenous administration of 100 nmol
Protocol: as §2

[5] = Plasma BUN, assessment of renal injury (Example 14); format: in vivo, mice
Protocol: as §2

NGAL mRNA = assay: Stress-induced mRNA by RT-PCR, NGAL; format: in vivo, mice; conditions: four hours post-peptide administration
Protocol: (§3) At four hours post-peptide administration, potential renal injury was assessed by measuring three stress-induced mRNAs (MCP-1, NGAL, and TNFa).

TNFa mRNA = assay: Stress-induced mRNA by RT-PCR, TNFa; format: in vivo, mice; conditions: four hours post-peptide administration
Protocol: as §3

MCP-1 mRNA = assay: Stress-induced mRNA by RT-PCR, MCP-1; format: in vivo, mice; conditions: four hours post-peptide administration
Protocol: as §3

HO-1 mRNA = assay: mRNA by RT-PCR, HO-1; format: in vivo, mice; conditions: four hours post-peptide administration
[6] = Whole body autoradiography of 14C labeled peptides, renal cortex and blood; format: in vivo, mice; conditions: for Signal ratio Kidney:Blood (3 hours) / Signal ratio Kidney:Blood (24 hours): renal cortex vs blood from the ventricle, 100 nmol iv; for Pixel density-Bkg/area (3 hours) / Pixel density-Bkg/area (24 hours): renal cortex, 100 nmol 14C labeled peptide iv
Source text: This example describes radiolabeling of peptides of this disclosure. Several knotted peptides were radiolabeled by reductive methylation with ^14C formaldehyde and sodium cyanoborohydride with standard techniques. The sequences were engineered to have the amino acids, “G” and “S” at the N terminus. See Methods in Enzymology V91:1983 p. 570 and JBC 254(11):1979 p. 4359. An excess of formaldehyde was used to ensure complete methylation (dimethylation of every free amine). The labeled peptides were isolated via solid-phase extraction on Strata-X columns (Phenomenex 8B-S100-AAK), rinsed with water with 5% methanol, and recovered in methanol with 2% formic acid. Solvent was subsequently removed in a blowdown evaporator with gentle heat and a stream of nitrogen gas. The final product was verified and characterized by high performance liquid chromatography (HPLC).
This example illustrates accumulation of peptides of the present disclosure in kidneys measured by whole body autoradiography. Peptides of the present disclosure were radiolabeled as described in EXAMPLE 2. 100 nmol of ^14C labeled peptides were administered intravenously in mice. Radiolabeled peptide signal was quantified in the renal cortex and blood from the ventricle in 2-3 sections per mouse in 2 mice total. Whole body autoradiography analysis was performed with AIDA.
SEQ ID NO: 55 and SEQ ID NO: 119 ([…]), a linearized version of SEQ ID NO: 55, were radiolabeled with ^14C as described in EXAMPLE 2 and administered intravenously in mice at a dose of 100 nmol. Radiolabeled peptide signal was quantified in the renal cortex and blood from the ventricle in 2-3 sections per mouse in 2 mice total. Whole body autoradiography analysis was performed with AIDA.

[7] = Accumulation of 14C-methylated peptide in renal tissue (Example 3); format: in vivo, mice; conditions: 14C autoradiography, iv 30-100 nmol per mouse; 3 hours and 24 hours
Protocol: This example describes accumulation of peptides of this disclosure in renal tissue. ^14C-methylated knotted peptides were intravenously dosed into mice at 30-100 nmol per mouse. […] Cryosectioning was performed on a Bright-Hacker cryotome, taking 40 μm sagittal sections. Collected sections were allowed to freeze dry at −20° C. for 48-72 hours before being exposed to phosphor imager plates. Plates were exposed for 7 days then scanned on a RayTest CR-Bio35 scanner. Analysis was performed with AIDA WBA analysis software.

[8] = Competitive renal uptake studies, fluorescence imaging of whole organs; format: in vivo, mice
Protocol: This example describes competitive uptake studies of peptides of this disclosure in kidneys. Peptides of this disclosure were compared to known kidney homers (“competitors”) to assess the efficiency and strength of kidney targeting. Three competitors were tested against a peptide of SEQ ID NO: 4, and kidney uptake was quantified by fluorescence imaging of whole organs on a Spectrum IVIS imager.
Kidneys from uninjected mice were used as a negative control. Fluorescence signal in each group was quantified to determine the average radiant efficiency in the kidneys from three mice per cohort. Data are shown as mean and error bars indicate standard deviation. A p-value of 0.0081 was calculated by a T-test, and the error bars indicate standard deviation. In this experiment, the unlabeled SEQ ID NO: 4 peptide competed with the SEQ ID NO: 4-AF647 as shown by decreased fluorescence and thus, decreased accumulation of the dye labeled peptide in the kidney. […] Fluorescence signal in each group was quantified to determine the average radiant efficiency in the kidneys from three mice per cohort. Data are shown as mean and error bars indicate standard deviation. Kidney uptake of a peptide of SEQ ID NO: 4-AF647 was not dampened by SEQ ID NO: 121 peptide even at the highest ratio of competitor. […] Fluorescence signal in each group was quantified to determine the average radiant efficiency in the kidneys from three mice per cohort. Data are shown as mean and error bars indicate standard deviation. A p-value of 0.015 was calculated by a Student's unpaired t-test.

pepsin = assay: Peptide stability in the presence of pepsin, RP-HPLC; format: in vitro ADME; conditions: 20 μg pepsin, pH 1.05, 30 minutes at 37.5° C.
Protocol: as §1

[9] = Temperature stability at 70° C., RP-HPLC; format: physicochemical; conditions: non-reducing conditions, 70° C. for 1 hour
Protocol: as §1

[10] = Table 3, 24 hours post-peptide administration
[11] = Table 3, 100 nmol iv (approximately 16 mg/kg), 24 hours post-peptide administration
[12] = Table 4, time not stated for this column (mRNAs at four hours)
[13] = Table 4, 100 nmol iv, time not stated for this column (mRNAs at four hours)

Sequence	Reduction [1]	Peptide BUN [2]	Trypsin (trypsin)	Plasma Creatinine [3, 10]	renal physiology (PAS histology, FIG. 24) [4]	Plasma BUN [5, 11]	mNGAL/GAPDH (NGAL mRNA)	mTNFa/GAPDH (TNFa mRNA)	mMCP-1/GAPDH (MCP-1 mRNA)	Plasma Creatinine [3, 12]	mHO-1/GAPDH (HO-1 mRNA)	Signal ratio Kidney:Blood (3 hours) [6]	Signal ratio Kidney:Blood (24 hours) [6]	Pixel density-Bkg/area (3 hours) [6]	Pixel density-Bkg/area (24 hours) [6]	Plasma BUN [5, 13]	also measured
GSQKILSNRCNNSSECIPHCIRIFGTRAAKCINRKCYCYP [SEQ ID NO: 20]	Resistant	29 mg/dL and 21 mg/dL	Partially Resistant	0.5 mg/dL	normal renal physiology	25 mg/dL											
GSSCARPRENCNRMNILCCRGECVCPTFGDCFCYGD [SEQ ID NO: 54]							1.58	2.42	0.74	0.26 mg/dL	0.65	0.8	7.2	1.48E+06	1.95E+06	26 mg/dL	
GSSCEPGRTFRDRCNTCRCGADGRSAACTLRACPNQ [SEQ ID NO: 4]																	renal signal pattern [7]: interacting with the kidney, likely cells of the proximal tubule; renal uptake in competition with unlabeled SEQ ID NO: 4 (FIG. 10) ([8]; 2 nmol SEQ ID NO: 4-AF647 co-injected with 0, 10 or 50 nmol unlabeled peptide, 4 hours): specific and saturable
GSSCEPGTTFRDRCNTCRCGSDGRSAACTLRACPQ [SEQ ID NO: 46]							1.39	2.87	0.64	0.29 mg/dL	0.58	4.7	6	8.83E+05	1.49E+06	22 mg/dL	
GSVFINVKCRGSPECLPKCKEAIGKSAGKCMNGKCKCYP [SEQ ID NO: 36]	Not Resistant	22 mg/dL and 21 mg/dL	Not Resistant	0.4 mg/dL	normal renal physiology	21.5 mg/dL											Pepsin (pepsin): Resistant; Temperature (70° C.) [9]: Resistant
KKEEEKKEEEKKEEEKK [SEQ ID NO: 121, reference compound]																	competition with kidney uptake of SEQ ID NO: 4-AF647 (FIG. 11) ([8]; 2 nmol SEQ ID NO: 4-AF647 co-injected with 100 or 2000 nmol competitor, 1 hour): failed to compete
